Source: publication PMC6093788

Biological target: azide-labeled Aβ (14–23) peptide
Test: AFM force spectroscopy

rupture force, dimer of neighbouring peptides (two-peak curves, peaks close): 44 pN
rupture force, dimer of peptides 1 and 3 (two-peak curves, peaks far): 37 pN
rupture force, monomer from the trimer (peak 1): 48 pN
rupture force, monomer from the trimer (peak 1), second experiment: 44 pN
rupture force, remaining dimer to monomers (peak 2): 53 pN
rupture force, remaining dimer to monomers (peak 2), second experiment: 50 pN
stoichiometry N: 3
Substance: azide-labeled Aβ (14–23) peptide
